From the nanobody polyreactivity screen of Harvey et al. (2022) come the findings set out here.

This data set is described as follows: yeast display, Sf9 membrane polyspecificity reagent, FACS + sequencing; frameworks hold sequencing errors. In short, it runs like this:
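A synthetic nanobody library was expressed on Saccharomyces cerevisiae BJ5465 by galactose induction for 36–48 hours. The library was stained for 1 hour at 4 °C with 10% biotinylated, detergent-solubilized Sf9 membrane reagent and enriched with streptavidin microbeads before FACS. Low and high (top ~1%) gates were set on anti-HA fluorescence for expression and streptavidin fluorescence for reagent binding, and each polyreactivity label reflects the gate of origin.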
With “QVKLVVSGGGLVQAGGSLRLTCAASGRTFRRNAMGWYRQAPGKERELVAAISTSGGRTYYADSVKGRFTISRDNAKNTVYLQMNSLKAEDTAVYYCAADIPQTEGYWGQGTQVTVSS”, the “polyreactivity (PSR sort gate)” value is recorded as “low polyreactivity”.
“QVQLQESGGGLVQAGGSLRLSCAGSGYIFPRIYMGWYRQAPGKEREFDAGISYDAITNYADSVKGRFTISLDNAKNTVYLQMNSLKPEDTAVYYCAVSYYGTPLFTYWGQGTQVTVSS”: the “polyreactivity (PSR sort gate)” value was “high polyreactivity”.
With “QVQLVESGGGLVQAGGSLRLSCAASGVTFSLNTMGWYRQSPGKERELVAAINSGDSTYADSVKGRFTISRDNAKNTVYVQMNSLKPEDTAVYYCTADPDWWYPYNYWGQGTQVTVSS”, the “polyreactivity (PSR sort gate)” value is “low polyreactivity”.
Consider “QVQLVESGGGLVQAGGSLRLSCAASGSIFYYYAMGRYRQAPGKERELVAAISSGGDTHYADSVKGRFTISRDNAKNTVYLQMNSLKPEDTAVFYCAAQRRYHQDTTIGPGNYYYWGQGTQVTVSS”, for which the “polyreactivity (PSR sort gate)” value was “low polyreactivity”.
For “QVQLVESGGGLVQAGGSLRLSCAASGRTFRYYAMGWYRQAPGKERELVAAISVRTGSTSYADSVKGRFTISRDNAKNTVYLQMNSLKPEDTAVYYCNAPQPGKGRTRTRYYYWGQGTQVTVSS”, the “polyreactivity (PSR sort gate)” value is reported as “high polyreactivity”.
To “QVQLVESGGGLVQAGGSLRLSCAASGRTLRKYAMGWYRQAPGKERELVAAITTSGGSTYYADSVKGRFTISRDNAKNTVYLQMNSLKPEDTAVYYCNAARYYAYIGDYWGQGTQVTVSS” belongs “high polyreactivity”.
For the sequence “QVQLVESGGRLVQAGGSLRLRCAASGFIFLVNAMGWYRQARGKESELVAAITTSGASTYYADSVKGRFTISRDNAKNTVYLQMNSLKPEDTAVYYCAAGSYARPEYGYWGQGTQVTVSS”, the “polyreactivity (PSR sort gate)” value is “low polyreactivity”.
To “QVQLVESGGGLVQAGGSLRLSCAASGRTFFGYAMGWYRQAPGKERELVAAITSSGGRTYYADSVKGRFTISRDNAKNTVYLQMNSLKTEDTAVYYCNTVLSFRSVNIYRGRGDYWGQGTLVTVSS” belongs “high polyreactivity”; to “QVQLVESGGGLVQAGGSLRLSCAASGIIFGYYAMGWYRQAPGKERELVAAITSGTSTYYADSVKGRFTISRDNAKNTVYLQMNSLKPEDTAVYYCNIVRRYGDEDSWGQGTQVTVSS”, “high polyreactivity”.
“QVQLVESGGGLVQAGGSLRLSCAASGFTFSHNPMGWYRQAPGKERELVATITRGGGNTYYADSVKGRCTISRDNAKNTVYLQMNSLKPEDTAVYYCSAERYKRMDYWGQGTQVTVSS”: the “polyreactivity (PSR sort gate)” value is on record as “low polyreactivity”.
To “QVQLVESGGGLVQAGGSLRLSCAASGSTFEWYTMGWYRQAPGKERELVAAINGGGSTKYADSVKGRFTISRDNAKKTVYLQMNSLKPEDTAVYYCNLKYGMYWGQGTQVTVSS” belongs “high polyreactivity”; to “QVQLVESGGGLVQAGGSLRLSCAASGSTFPYYAMGWYRQAPGKERELVAAISSSGGSTYYADSVKGRFTISRDNAKNTVYLQMNSLKPEDTAVYYCATSSRYVDGYEMDYWGQGTQVSVSS”, “high polyreactivity”.
Turning to “QVQLVESGGGLVQAGGSLRLSCAASGIIFGYYAMGWYRQAPGKERELVAAINQDGSSTYYADSVKGRFTISRDNAKNTVYFQMNSLKPEDTAVYYCNARGVPRQDARMGYWGQGTQVTVSS”, the “polyreactivity (PSR sort gate)” value is given as “low polyreactivity”.
With “QVQLVESGGGLVQAGGSLRLSCAASGFIFDRNAMGWYRQAPGKERELVAAISKSGGSTYYADSVKGRFSISRDNAKNTVYLQMNSLKPEDTAVYYCAADRPTIRYNSWGQGTQVTVSS” the entry was “high polyreactivity”; with “QVQLQERGVGLVQAGGTISLGYDMVWYRQAPGKEREFVAGIDTCAITYYADSVKGRFTNSRDNAKNTVYLQMNILNPEDTAVYYCAANQTHTYAHSYWGQGTQVTVSS”, “high polyreactivity”; with “QVQLVESGGGLVQAGGSLRLSCAPSGRTFGVYAMGWYRQAPGKERELVATISFNVASTYADSVKGRFTISRDNAKNTVYLQMNSLKPEDTAVYYCAVTAVRPLPLDSGYDYWGQGTQVTVSS”, “low polyreactivity”.
As to “QVQLGESGGGLVLAGGSLRLSCAASGYDMGWYRHAPGKESELVAAISRGGSTSYADSVKGRFTISRDNAKNTVYLQMNSLKPEDTAVYYCAARYGSYRVGYDYWGQGTQVTVSS”, the “polyreactivity (PSR sort gate)” value is listed as “low polyreactivity”.
With “QVQLVESGGGLVQAGGSLRLSCAASGSTFTVNTMGWYRQAPGKERELVDAISFGGGPTYYADSVKGRFTISRDNAKNTVYLQMNSLKPDDTAVYYCAARGYLWHARKYYYWGQGTQVTVSS”, the “polyreactivity (PSR sort gate)” value is recorded as “high polyreactivity”.
To “QVQLVESGGGLVQAGGSLRLSCAASGFTFYSNSMGWYRQAPGKERELVAAISSGGGTTYYADSVKGRFTISRDNAKNTVYLQMNSLKPEYTAVYYCAAGLSFFRSYSGFYYWGQGTQVTVSS” belongs “low polyreactivity”; to “QVQLVESGGGLVQAGGSLRLSCAASGSIFYLYTMGWYRQAPGKERELVASITYSGGTYYADSVKGRFTISRDNAKNTVYLQMNSLKPEDTAVYYCNAHIPTNRSYVPEVRGEYDYWGQGTQVTVSS”, “low polyreactivity”.
As for “QVQLVESGGGLVQAGGSLRLSCAASGLIIRPYAMGWYRQAPGKERELVAAITSGGSTDYADSVKGRFTISRVNAKNSVYLQMYSRKPEDTAVYYCNGDIYPHDGYPWQGDYDYWGQGTQVTVSS”, the “polyreactivity (PSR sort gate)” value is “low polyreactivity”.
Consider “QVQLVESGGGLVQAGCSLRLSCAASGSTFYYNAMGWYRQAPGKERELVAAITFTGGSTYADSVKGRFTISRDNAKNTVYLQLNSLKPEDTAVYYCAATIEGHDYLGTGYDYWGHGTQVTVSS”, for which the “polyreactivity (PSR sort gate)” value was “low polyreactivity”.
As for “QVQLVESGGGLVQAGGSLRLSCAASGITLVRYAMGWYRQAPGKERELVASITSGASTNYADSVKGRFTISRDNAKNTVYLQMNSLKPEDTAVYYCAAGPPSGGWWGGWYDYWGQGTQVTVSS”, the “polyreactivity (PSR sort gate)” value is reported as “high polyreactivity”.
As for “QVQLVESGGGLVQAGGSLRLSCAASGSTFWAYVMGWYRQAPGKERELVAAISKSGVRTHYADSVKGRFTISRDNAKNTVYLQMNSLKPEDTAVYYCAAGGVGNLDDYWGQVTQVTVSS”, the “polyreactivity (PSR sort gate)” value is reported as “high polyreactivity”.
In the case of “QVQLVESGGGLVQAGGSLRLSCAASGRTFRYYAMGWYRQPPGKERELVAAISISGGNTYYADSVKGRFTISRDNAKNTVYLQMNSLKPEDTAVYYCAAAGRGSGYDYWGQGTQVTVSS”, the “polyreactivity (PSR sort gate)” value is given as “high polyreactivity”.
For the sequence “QVQLVESGGGLVQAGGSLRLSCAASGSIFKCNAMGWYRQAPGKERELVASITRSGGSTYYADSVKGRFTISRDNAKNTVYLQMNSLKPEDTAVYYCARSYGWYRWAGYDYWGQGTQVTVSS”, the “polyreactivity (PSR sort gate)” value is “high polyreactivity”.
As to “QVQLVESGGGLVQAGGSLRLRCAPSGSIFSAYAMGWYRQAPGKVREVVAGISKSGARTYYADSVKGRFTLSRDNAKNTVYLQMNRLKPEDTAVYYCAAVDYYLYYYWGQGTQVTVSS”, the “polyreactivity (PSR sort gate)” value is “high polyreactivity”.
With “QVQLVESGGGLVQAGGSLRLSCAASGITFTENVMGWYRQAPGKERELVAGISRSGGITYYADSVKGRFTISRDNAKNTVYLQMNSLKPEDTAVYYCAAEEAYRSRRGGFDYWGQGTQVTVSS” the entry was “high polyreactivity”; with “QVQLVESGGGIVQAGGSLRLSCAASGRTFFHYAMGWYRQAPGKERELVAGISSGGRTKYADSVKGRFTISRDNAKNTVYLQMNSLKPEDTAVYYCAASYIVWLTRGAPRKRFDYWGQGTQVTVSS”, “high polyreactivity”; with “QVQLVESGGGLVQAGGSLRLICADSGLTFSCYTMGGYRQAPGKERELVADITVSGGTTYYADSVKGRFSISRDNAKNTVYLQMNSLKPEDTSVYYCNAQDTFTYYSSSPTYDYWGQGTQVTVSS”, “low polyreactivity”.
